The target in test [1] is Human Id1: Histidine (human) (UniProt P41134). The test can be described thus: sandwich ELISA, 5-3-coated wells, human Id1:His 0.5 ng/ml, detected with rabbit polyclonal B-5133-HRP.
Test [2] shares this target. The experiment in a line: ELISA, coated antigen, Ab 0.25 ug/ml. Background: ELISA stands for enzyme-linked immunosorbent assay.
The target is the same in test [3]. The experiment in a line: ELISA, coated antigen, Ab 0.50 ug/ml.
Test [4] shares this target. The experiment in a line: ELISA, coated antigen, Ab 0 ug/ml (blank).
The target in test [5] is T1, Human Id2: Histidine (human, UniProt Q02363 1-134, limits assumed).
T1 construct: E. coli fusion protein (vector pGW07); also called h-Id2: His; not shown: His-tag
T1 sequence (looked up): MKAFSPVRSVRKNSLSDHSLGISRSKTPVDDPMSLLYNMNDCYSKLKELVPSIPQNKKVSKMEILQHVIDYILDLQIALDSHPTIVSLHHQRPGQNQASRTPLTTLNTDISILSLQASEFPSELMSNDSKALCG
The test can be described thus: ELISA, coated antigen, Ab 0.25 ug/ml. Here is the method: (§1) Incubate plates at 2-8° C. overnight (16-24 hours). [0145] 11. Shake off the BSA solution. [0146] 12. Dispense 250 μL of 2.5% sucrose solution into each well. [0147] 13. Incubate plates at 2-8° C. for 4 hours. [0148] 14. Shake off sucrose solution. [0149] 15. Dry in vacuum at room temperature overnight. Screening Method [0150] 1. Dispense 100 μL of antibody diluent, diluted rabbit polyclonal anti-Id1 into appropriate wells. […] 2. Incubate at room temperature with mechanical shaking at 750 rpm for 90 minutes. [0152] 3. Remove the incubation mixture by flicking plate content into an appropriate waste container, followed by rinsing the wells 5 times with distilled water. […] 4. Strike the wells sharply onto absorbent paper or paper towels to remove all residual water droplets. [0154] 5. Dispense 100 μL of Goat Anti-Rabbit IgG-HRP Conjugate Reagent into each well. Gently mix for 5 seconds. [0155] 6. Incubate at room temperature with mechanical shaking at 750 rpm for 90 minutes. […] 7. Repeat procedures 3 and 4. [0157] 8. Dispense 100 μL of TMB Reagent into each well. Gently mix for 5 seconds. [0158] 9. Incubate at room temperature with mechanical shaking at 750 rpm for 20 minutes. [0159] 10. Add 100 μL of Stop Solution (1N HCl) into each well. [0160] 11. Gently mix for 10 seconds to ensure a complete mixing. […] 12. Read optical density (absorbance) at 450 nm. Results from this assay were used to select the rabbit sera with the highest antibodies titer that selectively reacts with mouse Id1 or human Id1 or both.
(§2) A comparison was carried out between the reactivity of the rabbit monoclonal anti-mouse Id1, clone #BCH-1/#37-2, of this invention and the mouse monoclonal anti-mouse/human Id1 from BD Pharmingen with the following antigens prepared in Example 5: mouse Id1:His, human Id1:His, human Id2:His, human Id3:His, and GST. These antigens and protein were used to coat the wells.
(§3) Materials and methods were those described in Example 9 except (a) Pharmingen's mouse monoclonal anti-mouse Id1 was used in addition to the rabbit monoclonal anti-mouse Id1 (Example 10), and (b) goat anti-mouse IgG-HRP conjugate was used to process the wells treated with the Pharmingen monoclonal antibody and polyclonal goat anti-rabbit IgG-HRP conjugate was used to process wells treated with rabbit monoclonal anti-mouse Id1.

Test [6] has as its target T2, glutathione S-transferase (GST) (UniProt P08515 1-218 = GST).
T2 construct: Coated on wells as control for the fusion partner of the immunogen
The test can be described thus: ELISA, coated antigen, Ab 0.50 ug/ml. The protocol:
as §1, §2, §3

Test [7] addresses T3, Mouse Id1: Histidine (mouse, UniProt P20067-2 1-148).
T3 construct: E. coli fusion protein (vector pGW07); also called m-Id1-His; not shown: His-tag
T3 sequence: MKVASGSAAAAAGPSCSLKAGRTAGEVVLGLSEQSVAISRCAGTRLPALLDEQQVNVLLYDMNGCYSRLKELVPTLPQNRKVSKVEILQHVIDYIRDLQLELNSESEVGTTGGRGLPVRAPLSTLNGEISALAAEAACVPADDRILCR
The experiment in a line: ELISA, coated antigen, Ab 0.50 ug/ml. The protocol:
as §1, §2, §3

The target of test [8] is T1, Human Id2: Histidine. The experiment in a line: ELISA, coated antigen, Ab 0.50 ug/ml. The protocol: as §1, §2, §3
Test [9] has as its target T4, Human Id3: Histidine (human, UniProt Q02535 1-119, limits assumed).
T4 construct: E. coli fusion protein (vector pGW07); also called h-Id3: His; not shown: His-tag
T4 sequence (looked up): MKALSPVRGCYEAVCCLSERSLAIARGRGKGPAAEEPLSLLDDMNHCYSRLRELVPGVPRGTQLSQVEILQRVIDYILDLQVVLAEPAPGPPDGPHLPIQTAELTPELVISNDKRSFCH
The test can be described thus: ELISA, coated antigen, Ab 0.50 ug/ml. Here is the method: as §1, §2, §3

Test [10] addresses T2, glutathione S-transferase (GST). The test can be described thus: ELISA, coated antigen, Ab 2.50 ug/ml. Here is the method:
as §1, §2, §3

For test [11], the target named is T3, Mouse Id1: Histidine. The test can be described thus: ELISA, coated antigen, Ab 2.50 ug/ml. The protocol: as §1, §2, §3
For test [12], the target named is T1, Human Id2: Histidine. The experiment in a line: ELISA, coated antigen, Ab 2.50 ug/ml. Here is the method: as §1, §2, §3
Test [13] deals with T4, Human Id3: Histidine. The experiment in a line: ELISA, coated antigen, Ab 2.50 ug/ml. Here is the method: as §1, §2, §3

Chain of Human Id1: Histidine (human) (P41134 whole entry): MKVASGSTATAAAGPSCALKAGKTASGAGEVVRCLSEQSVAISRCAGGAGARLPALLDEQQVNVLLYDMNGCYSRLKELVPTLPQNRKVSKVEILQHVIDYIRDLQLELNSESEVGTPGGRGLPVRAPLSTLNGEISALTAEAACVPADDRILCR
T2 sequence (P08515 whole entry, the tested form may be a part): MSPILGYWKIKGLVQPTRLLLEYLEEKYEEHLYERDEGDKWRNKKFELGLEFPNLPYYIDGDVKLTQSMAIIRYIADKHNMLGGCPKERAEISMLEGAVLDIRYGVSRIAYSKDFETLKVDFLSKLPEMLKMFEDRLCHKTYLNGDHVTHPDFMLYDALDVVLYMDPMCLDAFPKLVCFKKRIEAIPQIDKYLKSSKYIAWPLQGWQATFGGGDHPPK

Molecule “rabbit monoclonal anti-human Id1, clone #BCH-2/#5-3 (antibody)” yielded an A450 in [1] of 0.085 A450.

B1: rabbit monoclonal anti-mouse Id1, clone #BCH-1/#37-2 (antibody, V domains shown)
VH: QSVEESGGRLVTPGTPLTLTCKVSGFDINSYAMDWFRQAPGKGLEWIGMMSTRGNTYYTSWAKGRFTISKTSSTTVDLKMTSLTTEDTATYFCARGGLWGPGTLVTVSS
VL: RVLTQTASPVSAAVGGTVTINCQASQSVYNGNRLGWYQLKPGQSPKELIHDASTLASGVPSRFRGSGSGTQFTLTINDVQCDDAATYYCVGSYACSTGDCNVFGGGTEVVVK
notes: Rabbit IgG from hybridoma, Protein G purified; also called m Id1 MoAb 37-2; Rabbit Monoclonal Anti-Mouse Id1 (#37-2)
On to B1, for which the A450 in test [2] is 0.07 A450; in test [3], 0.091 A450; in [4] it was 0.047 A450; in the test with Human Id2: Histidine [5] it was 0.049 A450; in test [6], 0.053 A450; in the test with Mouse Id1: Histidine [7] it was 2.46 A450. The A450 in the test with Human Id2: Histidine [8] was 0.052 A450; with Human Id3: Histidine [9], 0.052 A450; in test [10], 0.068 A450; with Mouse Id1: Histidine [11] it was 3.16 A450; with Human Id2: Histidine [12], 0.07 A450; with Human Id3: Histidine [13], 0.069 A450.

The values are drawn from patent US20060286609A1 (BIOCHECK, published 2006).
